Values quoted from earlier work, collected in paper PMC3515962.

Molecular target: IL-2 receptor (Mus musculus) (UniProt P01590)
Test: radioligand binding

Sequence of UniProt P01590 (P01590 22-236, chain 1 of 3): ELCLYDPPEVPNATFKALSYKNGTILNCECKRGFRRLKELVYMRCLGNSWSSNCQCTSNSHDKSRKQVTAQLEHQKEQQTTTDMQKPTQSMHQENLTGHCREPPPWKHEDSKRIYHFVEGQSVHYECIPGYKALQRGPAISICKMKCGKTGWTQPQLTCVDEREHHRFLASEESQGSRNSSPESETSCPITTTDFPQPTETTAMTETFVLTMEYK
Sequence of UniProt P01590 (P16297 27-240, chain 2 of 3, further chain): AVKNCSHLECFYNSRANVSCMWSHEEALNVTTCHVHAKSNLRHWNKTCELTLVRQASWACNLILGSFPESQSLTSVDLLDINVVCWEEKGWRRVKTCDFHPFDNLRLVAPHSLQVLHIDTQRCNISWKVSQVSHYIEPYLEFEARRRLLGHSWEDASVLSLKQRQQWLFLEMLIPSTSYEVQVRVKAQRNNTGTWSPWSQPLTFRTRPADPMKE
Sequence of UniProt P01590 (P34902 23-263, chain 3 of 3, further chain): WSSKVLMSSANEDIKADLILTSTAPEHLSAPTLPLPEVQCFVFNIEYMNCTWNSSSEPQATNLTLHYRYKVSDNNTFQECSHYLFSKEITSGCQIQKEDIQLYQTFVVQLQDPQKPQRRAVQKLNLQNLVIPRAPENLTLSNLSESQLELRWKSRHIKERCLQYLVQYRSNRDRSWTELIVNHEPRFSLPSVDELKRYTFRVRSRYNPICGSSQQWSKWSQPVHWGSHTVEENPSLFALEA

Kd: 0.02 nM
Substance: TCGF (IL-2) (from UniProt P60568)
